Drawing on US20090068103, this text covers Kd for 1 sequence.

By Kd is commonly meant the concentration at which binding is half-saturated.

The data set deals with Tenascin-C (TN-C) (Homo sapiens) (UniProt P24821). The data set is described as follows: FP. To be noted: 5'-C6 amine conjugated to MAG2-DO3A chelator; (CH2CH2O)6 spacer between GGGAGGACG and CGUCGC; 3'-3'-T cap; nitrocellulose filter binding, TN-C titrated 1.25e-7 to 6.35e-12 M.
Chain of Tenascin-C (TN-C) (Homo sapiens) (P24821 23-2201): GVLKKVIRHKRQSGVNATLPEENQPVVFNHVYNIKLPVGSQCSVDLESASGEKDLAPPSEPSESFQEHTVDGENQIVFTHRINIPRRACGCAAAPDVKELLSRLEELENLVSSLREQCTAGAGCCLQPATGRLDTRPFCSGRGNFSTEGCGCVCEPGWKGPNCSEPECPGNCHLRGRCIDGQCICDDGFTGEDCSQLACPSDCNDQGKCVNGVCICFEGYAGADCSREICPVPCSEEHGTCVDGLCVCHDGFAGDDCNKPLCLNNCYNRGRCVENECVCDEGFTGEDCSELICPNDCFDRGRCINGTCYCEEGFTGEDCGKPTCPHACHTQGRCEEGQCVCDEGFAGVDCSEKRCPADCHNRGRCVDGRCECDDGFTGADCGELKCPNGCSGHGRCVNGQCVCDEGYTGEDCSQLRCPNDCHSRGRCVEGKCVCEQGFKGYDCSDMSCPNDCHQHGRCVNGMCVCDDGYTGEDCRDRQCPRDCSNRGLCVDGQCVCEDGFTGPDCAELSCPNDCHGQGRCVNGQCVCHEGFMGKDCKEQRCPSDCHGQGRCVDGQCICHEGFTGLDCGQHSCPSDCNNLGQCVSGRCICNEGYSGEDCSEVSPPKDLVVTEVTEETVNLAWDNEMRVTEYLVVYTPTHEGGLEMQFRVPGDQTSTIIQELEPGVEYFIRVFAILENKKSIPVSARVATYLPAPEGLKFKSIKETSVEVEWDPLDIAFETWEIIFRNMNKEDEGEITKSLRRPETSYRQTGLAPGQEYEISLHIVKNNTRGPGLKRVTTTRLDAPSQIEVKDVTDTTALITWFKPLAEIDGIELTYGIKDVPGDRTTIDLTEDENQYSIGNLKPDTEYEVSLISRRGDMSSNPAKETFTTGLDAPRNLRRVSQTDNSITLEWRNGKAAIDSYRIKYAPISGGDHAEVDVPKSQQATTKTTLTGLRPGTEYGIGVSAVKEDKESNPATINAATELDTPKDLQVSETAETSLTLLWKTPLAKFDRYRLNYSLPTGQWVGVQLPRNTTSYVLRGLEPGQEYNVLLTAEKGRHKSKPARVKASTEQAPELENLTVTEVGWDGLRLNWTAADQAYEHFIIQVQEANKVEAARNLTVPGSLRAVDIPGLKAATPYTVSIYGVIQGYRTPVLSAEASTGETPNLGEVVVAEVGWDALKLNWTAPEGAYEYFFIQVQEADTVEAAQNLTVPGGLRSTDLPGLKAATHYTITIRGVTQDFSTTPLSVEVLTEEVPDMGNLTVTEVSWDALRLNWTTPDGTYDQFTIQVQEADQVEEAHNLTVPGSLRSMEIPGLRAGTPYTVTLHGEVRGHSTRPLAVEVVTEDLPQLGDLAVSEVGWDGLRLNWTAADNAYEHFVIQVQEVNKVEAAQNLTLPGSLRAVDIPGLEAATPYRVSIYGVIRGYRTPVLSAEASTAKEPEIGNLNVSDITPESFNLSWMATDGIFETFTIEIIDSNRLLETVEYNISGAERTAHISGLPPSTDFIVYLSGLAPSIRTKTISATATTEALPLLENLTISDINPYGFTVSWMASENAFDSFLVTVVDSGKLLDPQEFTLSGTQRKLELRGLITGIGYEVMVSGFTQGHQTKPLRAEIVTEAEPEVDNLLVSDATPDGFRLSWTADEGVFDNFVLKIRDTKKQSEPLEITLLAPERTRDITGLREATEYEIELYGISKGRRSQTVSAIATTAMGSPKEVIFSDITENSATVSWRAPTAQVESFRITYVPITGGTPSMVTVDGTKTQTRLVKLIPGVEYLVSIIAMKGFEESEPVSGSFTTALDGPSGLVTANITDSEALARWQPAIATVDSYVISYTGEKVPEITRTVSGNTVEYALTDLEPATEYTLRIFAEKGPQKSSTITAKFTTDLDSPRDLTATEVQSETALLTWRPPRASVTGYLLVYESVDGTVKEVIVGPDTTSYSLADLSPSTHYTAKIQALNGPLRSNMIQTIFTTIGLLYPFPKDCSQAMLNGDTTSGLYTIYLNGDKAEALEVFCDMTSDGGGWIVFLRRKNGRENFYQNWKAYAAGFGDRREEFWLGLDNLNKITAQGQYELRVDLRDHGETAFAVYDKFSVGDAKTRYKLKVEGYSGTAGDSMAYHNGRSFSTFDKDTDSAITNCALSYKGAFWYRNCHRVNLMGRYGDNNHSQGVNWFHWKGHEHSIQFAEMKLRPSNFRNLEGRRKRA

Sequence “GGGAGGACGCGUCGCCGUAAUGGAUGUUUUGCUCCCUG [111In-TTA1-MAG2-DO3A]” displayed a Kd of 1 nM.
